Test results as given in patent US10946092 (BEIJING MABWORKS BIOTECH, dated 2021).
Read-outs that look alike come from different tables or passages of the source.

T1: recombinant human LAG3(ECD)-his (Sino Biological, Cat #: 16498-H08H) (human, UniProt P18627 23-450)
T1 construct: extracellular domain; Bought protein; not shown: his tag
T1 sequence (looked up): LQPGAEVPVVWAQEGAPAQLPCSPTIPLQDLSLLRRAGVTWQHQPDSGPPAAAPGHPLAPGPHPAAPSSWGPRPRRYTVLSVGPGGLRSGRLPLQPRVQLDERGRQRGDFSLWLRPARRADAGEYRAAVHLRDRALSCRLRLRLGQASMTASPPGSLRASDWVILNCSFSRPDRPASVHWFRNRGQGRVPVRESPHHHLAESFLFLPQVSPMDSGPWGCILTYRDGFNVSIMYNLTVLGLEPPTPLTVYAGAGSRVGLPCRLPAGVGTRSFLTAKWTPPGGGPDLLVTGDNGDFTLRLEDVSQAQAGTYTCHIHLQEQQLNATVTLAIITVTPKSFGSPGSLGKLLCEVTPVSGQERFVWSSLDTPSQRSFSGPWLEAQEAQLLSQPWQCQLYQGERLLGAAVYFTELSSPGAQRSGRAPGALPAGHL

T2: Human PBMC
T2 chain: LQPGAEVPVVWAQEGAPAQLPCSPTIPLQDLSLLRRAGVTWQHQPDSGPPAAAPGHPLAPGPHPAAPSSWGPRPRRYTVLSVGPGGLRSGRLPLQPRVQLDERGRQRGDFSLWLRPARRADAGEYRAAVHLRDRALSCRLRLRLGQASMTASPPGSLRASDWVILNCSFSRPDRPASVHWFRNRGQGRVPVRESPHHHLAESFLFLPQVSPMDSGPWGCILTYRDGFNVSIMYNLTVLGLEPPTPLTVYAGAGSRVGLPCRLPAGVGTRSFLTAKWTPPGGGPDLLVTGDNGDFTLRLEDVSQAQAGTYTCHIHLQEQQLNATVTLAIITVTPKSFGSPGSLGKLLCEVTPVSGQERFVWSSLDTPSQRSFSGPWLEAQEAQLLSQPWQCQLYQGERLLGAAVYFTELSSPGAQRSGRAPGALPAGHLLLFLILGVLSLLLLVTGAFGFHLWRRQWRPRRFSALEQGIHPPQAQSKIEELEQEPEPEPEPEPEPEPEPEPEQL

T3: human LAG3 expressed on HEK293A cells (human, UniProt P18627 23-525)
T3 construct: whole, on cells; also called HEK293A/human LAG3
T3 sequence (looked up): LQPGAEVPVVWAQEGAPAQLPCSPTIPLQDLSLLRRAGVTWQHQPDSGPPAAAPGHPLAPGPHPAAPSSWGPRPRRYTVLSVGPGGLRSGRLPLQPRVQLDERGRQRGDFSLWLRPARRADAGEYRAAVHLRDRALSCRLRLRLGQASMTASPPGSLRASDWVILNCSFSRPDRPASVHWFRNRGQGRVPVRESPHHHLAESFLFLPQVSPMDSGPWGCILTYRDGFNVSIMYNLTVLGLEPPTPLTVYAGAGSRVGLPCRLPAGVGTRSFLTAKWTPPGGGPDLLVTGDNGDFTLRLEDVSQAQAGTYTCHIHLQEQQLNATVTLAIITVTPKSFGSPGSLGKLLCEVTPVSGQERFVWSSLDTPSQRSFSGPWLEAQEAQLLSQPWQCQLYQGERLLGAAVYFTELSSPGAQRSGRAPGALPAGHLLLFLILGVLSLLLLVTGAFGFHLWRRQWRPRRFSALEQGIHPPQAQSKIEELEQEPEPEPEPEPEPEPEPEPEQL

T4: hLAG-3-hIg fusion protein (human LAG-3 extracellular domain fused to human Fc); Sino Biological, Cat #: … (human, UniProt P18627 23-450)
T4 construct: extracellular domain; Bought protein; also called LAG3 fusion protein; human LAG3(ECD)-hFc; not shown: human Fc
T4 sequence (looked up): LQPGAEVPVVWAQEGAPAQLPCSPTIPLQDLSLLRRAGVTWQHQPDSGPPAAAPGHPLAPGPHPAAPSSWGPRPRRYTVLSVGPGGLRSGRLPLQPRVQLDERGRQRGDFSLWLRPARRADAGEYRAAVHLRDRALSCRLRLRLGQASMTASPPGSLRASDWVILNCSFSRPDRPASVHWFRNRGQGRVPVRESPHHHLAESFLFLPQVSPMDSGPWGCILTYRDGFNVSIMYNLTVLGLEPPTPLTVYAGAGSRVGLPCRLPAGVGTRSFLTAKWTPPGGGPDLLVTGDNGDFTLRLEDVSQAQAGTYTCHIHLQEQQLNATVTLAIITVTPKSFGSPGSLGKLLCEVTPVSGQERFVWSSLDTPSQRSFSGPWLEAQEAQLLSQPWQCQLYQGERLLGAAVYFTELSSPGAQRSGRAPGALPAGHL


Tests used:
[1] = target: T5, monkey LAG3(ECD)-mFc protein (ACRO, Cat #: LA3-052A0) (monkey); experiment: SPR (BIAcore 8K), monkey LAG3(ECD)-mFc coupled to chip, antibody injected, 1:1 Langmuir
T5 construct: extracellular domain; Bought protein
Description: (§1) Serially diluted antibodies at concentrations ranging from 0.3 μM to 10 μM were injected into the SPR running buffer (HBS-EP buffer, pH7.4, GE Life Sciences; US; Cat #: BR-1006-69) at 30 μL/minute. The binding capacities were calculated with the RUs of blank controls subtracted. The association rate (Ka) and dissociation rate (Kd) were calculated using the one-to-one Langmuir binding model (BIA Evaluation Software, GE Life Sciences). The equilibrium dissociation constant K_D was calculated as the kd/ka ratio.

[2] = target: T1, recombinant human LAG3(ECD)-his (Sino …); experiment: SPR (BIAcore 8K), human LAG3(ECD)-his coupled to chip, antibody injected, 1:1 Langmuir; printed a second time as 'Ka values', read as Kd
Description: as §1

Human PBMC = target: T2, Human PBMC; experiment: FACS on activated human PBMC
Description: Briefly, 10^5 HEK293A cells in 50 μl PBS buffers were seeded into each well of the 96-well plates and then added with 50 μl of serially diluted anti-LAG3 antibodies (5-fold dilution, starting from 40 μg/ml). After incubated at 4° C. for 1 hour, plates were washed 3 times with PBST. Then, an APC coupled Goat Anti-Mouse IgG (BioLegend, US, Cat #: 405308) diluted 500× was added to the plates. After incubation at 4° C. for 1 hour, the plates were washed with PBS for 3 times and then cell fluorescence was monitored using a FACS machine (BD).
Further, the binding activities of the two antibodies to actived human PBMCs were investigated by FACS. Briefly, human PBMCs were collected by density gradient centrifugation and then re-suspended in the complete medium (RPMI medium+10% FBS+ human IL-2 (20 IU/ml, R&D, Cat #: 202-IL)+ Dynabeads™ Human T-Activator CD3/CD28 (Gibco, Cat #: 11132D)) at 37° C. under 5% CO_2 in a humidified incubator for 2 days to get activated T cells. The cells were then collected and tested by FACS as described in Example 6.

[3] = target: T1, recombinant human LAG3(ECD)-his (Sino …); experiment: SPR (BIAcore 8K), human LAG3(ECD)-his coupled to chip, antibody injected, 1:1 Langmuir
Description: as §1

[4] = target: T3, human LAG3 expressed on HEK293A cells; experiment: FACS on HEK293A cells expressing human LAG3
[5] = target: T4, hLAG-3-hIg fusion protein (human LAG-3 …); experiment: FACS blocking assay: hLAG-3-hIg preincubated with the antibody, then binding to MHC II on Daudi cells
[6] = target: T4, hLAG-3-hIg fusion protein (human LAG-3 …); experiment: as above; remark: listed apart in the source
[7] = target: T3, human LAG3 expressed on HEK293A cells; experiment: FACS on HEK293A cells expressing human LAG3; remark: listed apart in the source

Binder | binding result [4] | binding result [5] | binding result [6] | binding result [7] | other results
humanized antibody 101F4H2L2 (antibody, human IgG4 S228P, kappa, V domains shown, Human IgG4 (S228P)/kappa) VH: QVQLVQSGAEVKKPGASVKVSCKVSGYTFTDYEMHWVRQAPGKGLEWMGAIDPETGGIVYNQRFKGRVTLTADTSTDTAYMELSSLRSEDTAVYYCATAGWGYWGQGTTVTVSS VL: DIQMTQSPSSLSASVGDRVTITCKASQDINSYLSWYQQKPGKAPKLLIYRANRLLDGVPSRFSGSGSGQDYTLTISSLQPEDFATYYCLQYDEFPFTFGQGTKLEIKR | – | – | – | – | Kd [1]: 0.488 nM; koff [2]: 0.398 s⁻¹; EC50 (read off the curve) (Human PBMC): ~100 ng/mL; Kd [3]: 414 nM; kon [3]: 960000 M⁻¹ s⁻¹
humanized antibody 101F4H3L3 (antibody, human IgG4 S228P, kappa, V domains shown, Human IgG4 (S228P)/kappa) VH: QVQLVQSGAEVKKPGASVKVSCKASGYTFTDYEMHWVRQAPGKGLEWMGAIDPETGGIVYNQRFKGRATLTADTSTDTAYMELSSLRSEDTAVYYCAGAGWGYWGQGTTVTVSS VL: DIQITQSPSSLSASVGDRVTITCKASQDINSYLSWFQQKPGKAPKLLIYRANRLLDGVPSRFSGSGSGQDYTLTISSLQPEDFATYYCLQYDEFPFTFGQGTKLEIKR | binds | binds | – | – | –
humanized antibody 101F4H3L2 (antibody, human IgG4 S228P, kappa, V domains shown, Human IgG4 (S228P)/kappa) VH: QVQLVQSGAEVKKPGASVKVSCKASGYTFTDYEMHWVRQAPGKGLEWMGAIDPETGGIVYNQRFKGRATLTADTSTDTAYMELSSLRSEDTAVYYCAGAGWGYWGQGTTVTVSS VL: DIQMTQSPSSLSASVGDRVTITCKASQDINSYLSWYQQKPGKAPKLLIYRANRLLDGVPSRFSGSGSGQDYTLTISSLQPEDFATYYCLQYDEFPFTFGQGTKLEIKR | binds | binds | – | – | –
humanized antibody 101F4H0L0 (antibody, human IgG4 S228P, kappa, V domains shown, Human IgG4 (S228P)/kappa) VH: QVQLVQSGAEVKKPGASVKVSCKVSGYTFTDYEMHWVRQAPGKGLEWMGAIDPETGGIVYNQRFKGRVTMTEDTSTDTAYMELSSLRSEDTAVYYCATAGWGYWGQGTTVTVSS VL: DIQMTQSPSSLSASVGDRVTITCKASQDINSYLSWYQQKPGKAPKLLIYRANRLLDGVPSRFSGSGSGTDFTLTISSLQPEDFATYYCLQYDEFPFTFGQGTKLEIKR | binds | binds | – | – | –
humanized antibody 134G10H2L2 (antibody, human IgG4 S228P, kappa, V domains shown, Human IgG4 (S228P)/kappa) VH: EVQLVESGGGLVKPGGSLRLSCAASGFTFSSFGMSWVRQAPGKRLEWVSIISSGGTYTFYPDILKGRFTISRDNAKNSLYLQMNSLRAEDTAVYYCARVYSDYDGRFDYWGQGTLVTVSS VL: DIVMTQSPSSLAVSLGERATINCKSSQSLLNSGNQKNYLAWYQQKPGQPPKLLIYGASTRESGVPDRFSGSGSGTDFTLTISSLQAEDVAVYYCQNDHSYPLTFGAGTKLEIKR | – | – | binds | binds | –
humanized antibody 134G10H2L3 (antibody, human IgG4 S228P, kappa, V domains shown, Human IgG4 (S228P)/kappa) VH: EVQLVESGGGLVKPGGSLRLSCAASGFTFSSFGMSWVRQAPGKRLEWVSIISSGGTYTFYPDILKGRFTISRDNAKNSLYLQMNSLRAEDTAVYYCARVYSDYDGRFDYWGQGTLVTVSS VL: DIVMTQSPSSLAVSLGERATINCKSSQSLLNSGNQKNYLAWYQQKPGQPPKLLIYGASTRESGVPDRFTGSGSGTDFTLTISSLQAEDVAVYYCQNDHSYPLTFGAGTKLEIKR | – | – | – | – | Kd [1]: 0.000201 nM; Kd [3]: 0.262 nM; kon [3]: 166000 M⁻¹ s⁻¹

Further lines, with some results ahead:

binding result [4] | binding result [5] | binding result [6] | binding result [7] | Binder | other results
binds | binds | – | – | humanized antibody 101F4H2L3 (antibody, human IgG4 S228P, kappa, V domains shown, Human IgG4 (S228P)/kappa) VH: QVQLVQSGAEVKKPGASVKVSCKVSGYTFTDYEMHWVRQAPGKGLEWMGAIDPETGGIVYNQRFKGRVTLTADTSTDTAYMELSSLRSEDTAVYYCATAGWGYWGQGTTVTVSS VL: DIQITQSPSSLSASVGDRVTITCKASQDINSYLSWFQQKPGKAPKLLIYRANRLLDGVPSRFSGSGSGQDYTLTISSLQPEDFATYYCLQYDEFPFTFGQGTKLEIKR | –
– | – | binds | binds | humanized antibody 134G10H0L0 (antibody, human IgG4 S228P, kappa, V domains shown, Human IgG4 (S228P)/kappa) VH: EVQLVESGGGLVKPGGSLRLSCAASGFTFSSFGMSWVRQAPGKGLEWVSIISSGGTYTFYPDILKGRFTISRDNAKNSLYLQMNSLRAEDTAVYYCARVYSDYDGRFDYWGQGTLVTVSS VL: DIVMTQSPDSLAVSLGERATINCKSSQSLLNSGNQKNYLAWYQQKPGQPPKLLIYGASTRESGVPDRFSGSGSGTDFTLTISSLQAEDVAVYYCQNDHSYPLTFGQGTKLEIKR | –
– | – | binds | binds | humanized antibody 134G10H3L2 (antibody, human IgG4 S228P, kappa, V domains shown, Human IgG4 (S228P)/kappa; also called 134G10H3VL2) VH: EVQLVESGGGLVKPGGSLRLSCAASGFTFSSFGMSWVRQAPGKRLEWVGIISSGGTYTFYPDILKGRFTISRDNAKNSLYLQMNSLRAEDTAVYYCARVYSDYDGRFDYWGQGTLVTVSS VL: DIVMTQSPSSLAVSLGERATINCKSSQSLLNSGNQKNYLAWYQQKPGQPPKLLIYGASTRESGVPDRFSGSGSGTDFTLTISSLQAEDVAVYYCQNDHSYPLTFGAGTKLEIKR | –
– | – | binds | binds | humanized antibody 134G10H3L3 (antibody, human IgG4 S228P, kappa, V domains shown, Human IgG4 (S228P)/kappa) VH: EVQLVESGGGLVKPGGSLRLSCAASGFTFSSFGMSWVRQAPGKRLEWVGIISSGGTYTFYPDILKGRFTISRDNAKNSLYLQMNSLRAEDTAVYYCARVYSDYDGRFDYWGQGTLVTVSS VL: DIVMTQSPSSLAVSLGERATINCKSSQSLLNSGNQKNYLAWYQQKPGQPPKLLIYGASTRESGVPDRFTGSGSGTDFTLTISSLQAEDVAVYYCQNDHSYPLTFGAGTKLEIKR | –
